Measured values from patent publication US6307020A, “Intracellular antifreeze polypeptides and nucleic acids” (HSC Research and Development Ltd. Partnership, priority 1998, dated 2001).

Experiments:
[1] = Antifreeze activity measured as thermal hysteresis with a Clifton Nanoliter Osmometer; type: physicochemical
Protocol: The preferred method of measuring the activity of a skin type AFP is to measure the thermal hysteresis (the difference between the melting and freezing temperatures) of an aqueous solution containing the AFP. This can be done by performing a serial dilution of the AFP-containing aqueous solution, followed by cooling the solution gradually and monitoring the freezing point of the solution. Typically, this is performed using commercially available equipment designed specifically for this purpose, such as nanoliter osmoineter. See, Kao et al. (1986) Can. J. Zool. 64:578-582. A preferred osmometer is the Clifton Nanoliter Osmoineter (Clifton Technical Physics, Hartford, N.Y.). Instructions for using the equipment to perform thermal hysteresis are available from the manufacturer. […]
The activity of a skin-type AFP can be measured using a nanoliter osmometer. Antifreeze activity was measured as thermal hysteresis (the difference between the melting and freezing temperatures), essentially following the procedure of Chakrabartty et al. (1989) J. Biol. Chem. 264: 11313-11316. Proteins were dissolved in 0.1 M NH4 HCO3 and their concentrations were determined by duplicate amino acid analyses. […]
Antifreeze activity was measured as thermal hysteresis (difference between the melting and freezing temperatures) essentially following the procedure of Chakrabartty et al. (1989) J. Biol. Chem. 264, 11307-11312. […]

[2] = Circular dichroism and thermal denaturation of liver and skin AFPs; type: physicochemical; conditions: for Tm (temperature at which fraction helix is 0.5): thermal denaturation 0-60° C., CD
Protocol: CD spectra were measured using a Jasco J-600 spectropolarimeter. A water-jacketed (0.1 cm) quartz cell was used. Concentrations of peptides were calculated from UV-absorbance at 230 nm (OD230 =6.1 mM/L peptide-bonds). The concentrations of peptides for CD measurement were between 0.1-0.2 mg/ml in 0.1M NH4 HCO3, pH 8.5. Thermal denaturation of the peptides were measured by varying temperatures from 0-60° C. with a 5° C. step gradient. After CD measurement at 60° C., the samples were cooled to 0° C. and the extent of refolding was determined. The mean residue ellipticity at a given wavelength [q]1 was expressed in degree cm^2 dmol^-1. Fraction helix was calculated as described by Greenfield and Fasman (1969) Biochemistry 8, 4108-4116, employing 222 nm instead of 208 nm: [formula]
The ellipticity [q]222^coil of each peptide in 6.0 M guanidine hydrochloride at 25° C. was assumed to represent 0% helix formation, and the ellipticity for [q]222^helix 100% helix formation was calculated from J. T. Yang et al. (1986) Methods in Enzymology 130, 208-269: [q]^n= [q]^.infin. (1-k/n); where n is the chain length and k is a wavelength-dependent factor (at 222 nm k=2.5 and [q].infin.=-37,400 degree cm^2 dmol^-1).

Substance: sAFP2: skin-type AFP from winter flounder, MDAPAKAAAA TAAAAKAAAEA TAAAAAKAAAA TKAGAAR, SEQ ID NO: 18; identical to protein encoded by F2 (MDAPAKAAAATAAAAKAAAEATAAAAAKAAAATKAGAAR)
- antifreeze activity (thermal hysteresis) compared with serum AFP HPLC-6 ([1]; dilutions 0.1 to 7.0 mM in 0.1 M NH4HCO3, FIG. 3): less than half of that observed for HPLC-6
- antifreeze activity of GST-sAFP2 fusion protein compared with sAFP2 ([1]; nanoliter osmometer, 0.1 M NH4HCO3): indistinguishable
- Fraction Helix ([2]; 0° C., pH 8.5, 0.1M NH4HCO3, calculated from ellipticity at 222 nm): 0.61
- helical content by circular dichroism ([2]; at 0° C.): 61%
- [Θ]222 mean residue ellipticity ([2]; measured at 0° C., pH 8.5, 0.1M NH4HCO3): -21,677 deg cm^2 dmol^-1
- Tm (temperature at which fraction helix is 0.5) [2]: 12 °C
- Tm (temperature at which fraction helix is 0.5) ([2]; listed as SAFP2): 12.0 °C
